In patent US20100047253A1 (Amgen, published 2010):

T1: mouse IL-13 (mouse, UniProt P20109 22-131, limits assumed)
T1 construct: also called murine IL-13
T1 sequence (looked up): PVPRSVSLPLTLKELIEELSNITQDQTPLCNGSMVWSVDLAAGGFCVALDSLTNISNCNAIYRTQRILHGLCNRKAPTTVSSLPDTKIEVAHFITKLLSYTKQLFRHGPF

T2: Human IL-13-Mouse IL-13 Helix B (human IL-13 with mouse Helix B, UniProt P35225 35-146, limits assumed)
T2 construct: Expressed and secreted chimeric protein; also called Mo HelixB
T2 chain: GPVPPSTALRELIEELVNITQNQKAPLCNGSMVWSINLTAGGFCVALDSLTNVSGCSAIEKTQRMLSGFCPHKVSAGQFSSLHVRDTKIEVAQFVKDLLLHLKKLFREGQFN

T3: Human IL-13-Mouse IL-13 Helix C (human IL-13 with mouse Helix C, UniProt P35225 35-146, limits assumed)
T3 construct: Expressed and secreted chimeric protein; also called Mo HelixC
T3 chain: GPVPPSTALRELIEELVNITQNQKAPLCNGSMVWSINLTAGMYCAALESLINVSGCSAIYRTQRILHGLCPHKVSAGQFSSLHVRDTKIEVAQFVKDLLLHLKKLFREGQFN


Key:
[1] = molecular target: T4, human IL-13 (source not stated for the assay) (human, UniProt P35225 35-146, limits assumed); assay: cell-based or functional assay
[2] = molecular target: T5, Recombinant Human IL-13 (R & D 213-IL-005) (human, UniProt P35225 35-146); assay: SPR (Biacore 2000), mAb captured on goat anti-human surface, IL-13 (R&D) injected, 1:1 model
T5 construct: also called IL-13 antigen (R&D Systems)
T5 sequence (P35225 35-146 limits assumed): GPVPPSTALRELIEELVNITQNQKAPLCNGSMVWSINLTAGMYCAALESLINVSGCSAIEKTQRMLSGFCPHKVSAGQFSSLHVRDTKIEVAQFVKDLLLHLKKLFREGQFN

mouse IL-13 = molecular target: T1, mouse IL-13; assay: epitope mapping with mouse IL-13 chimeric molecules (ELISA)
[3] = molecular target: T2, Human IL-13-Mouse IL-13 Helix B; assay: ELISA on secreted IL-13 chimeric proteins
[4] = molecular target: T3, Human IL-13-Mouse IL-13 Helix C; assay: ELISA on secreted IL-13 chimeric proteins
native human IL-13 [5] = molecular target: T6, native human IL-13 (human, UniProt P35225 35-146, limits assumed); assay: KinExA, equilibrium in solution
T6 construct: also called hIL-13

[6] = molecular target: T2, Human IL-13-Mouse IL-13 Helix B; assay: ELISA on secreted IL-13 chimeric proteins; '*' denotes that the binding was weak in the sandwich ELISA
native macaque IL-13 = molecular target: T7, native macaque IL-13 (macaque monkey); assay: KinExA, equilibrium in solution
T7 construct: also called macaque monkey IL-13
T7 sequence (Q864V6 19-132): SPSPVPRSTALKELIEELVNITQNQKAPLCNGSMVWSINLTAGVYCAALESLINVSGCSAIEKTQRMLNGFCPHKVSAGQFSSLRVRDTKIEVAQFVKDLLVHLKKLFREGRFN

marmoset IL-13 = marmoset IL-13 (marmoset, UniProt A0A8I3WT33 35-145); assay: KinExA, n-curve analysis
marmoset IL-13, sequence (A0A8I3WT33 entry or part of it): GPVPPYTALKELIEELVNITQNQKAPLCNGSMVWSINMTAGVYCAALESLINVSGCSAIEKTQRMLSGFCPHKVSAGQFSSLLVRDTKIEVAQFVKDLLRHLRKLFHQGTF

native human IL-13 [7] = molecular target: T6, native human IL-13; assay: KinExA kinetic, injection method; koff calculated from kon and KD
native human IL-13 [8] = molecular target: T6, native human IL-13; assay: KinExA kinetic, injection method
[9] = molecular target: T8, Human IL-13-rabbit Fc fusion protein (human IL-13 fused to rabbit Fc); assay: ELISA on plates coated with IL-13RbFc, detection with rabbit anti Hu IgG Fc HRP (paragraph 267 to paragraph 269)
T8 construct: also called IL-13-RbFc; IL-13 Rb Fc
T8 sequence (chain, as listed by the source limits assumed): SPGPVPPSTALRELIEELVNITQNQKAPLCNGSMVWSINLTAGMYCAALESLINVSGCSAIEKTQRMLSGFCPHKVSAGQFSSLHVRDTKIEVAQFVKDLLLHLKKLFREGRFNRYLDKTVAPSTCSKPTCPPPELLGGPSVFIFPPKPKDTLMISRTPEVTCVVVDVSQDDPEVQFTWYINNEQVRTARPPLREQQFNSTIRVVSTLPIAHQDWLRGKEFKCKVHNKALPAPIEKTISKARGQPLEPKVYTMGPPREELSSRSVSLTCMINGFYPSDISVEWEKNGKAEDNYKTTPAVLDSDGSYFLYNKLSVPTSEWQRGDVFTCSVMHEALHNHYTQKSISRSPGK

[10] = molecular target: T4, human IL-13 (source not stated for the …); assay: cell-based or functional assay; remark: listed apart in the source
native human IL-13 [11] = molecular target: T6, native human IL-13; assay: KinExA; KD from the equilibrium experiments, printed in the kinetic table (injection method row)
[12] = molecular target: T4, human IL-13 (source not stated for the …); assay: cell-based or functional assay; remark: listed apart in the source

| Binder | IC50, IL-13 induced eotaxin release, Average [1] | IC50, IL-13 induced eotaxin release, n = 1 [1] | IC50, IL-13 induced eotaxin release, n = 2 [1] | IC50, IL-13 induced eotaxin release, n = 3 [1] | Kd [2] | koff [2] | kon [2] | binding result (mouse IL-13) | binding result [4] | other results |
| --- | --- | --- | --- | --- | --- | --- | --- | --- | --- | --- |
| mAb 11.18 (antibody, V domains shown) VH: QVQLVESGGGVVQPGRSLRLSCVASGFTFSSYDMHWVRQAPGKGLEWVAVIWYDGSNKYYADSVQGRFTISRDNSKNTLYLQMNSLRAEDTAVYYCTSEDSSGWYDGWFDPWGQGTLVTVSS VL: DIQMTQSPSSLSASVGDRVTITCRASQGISNYLAWYQQKPGKVPKVLIYAASTLQSGVPSRFSGSGSGTDFTLTISSLQPEDVATYYCQKYNSAPFTFGPGTKVDIK | 0.245 nM | 0.213 nM | 0.304 nM | 0.217 nM |  |  |  |  |  |  |
| mAb 157 (antibody, V domains shown) VH: EVQLVESGGGLVKPGGSLRLSCAASGFTFSSYSMNWVRQAPGKGLEWVSYISTSYNYIYYADSVKGRFTISRDNAKNSLYLQMNSLRAEDTAVYYCARDQVGATLDAFDIWGQGTMVTVSS VL: DIQMTQSPSSLSASVGDRVTITCRASQGIGDDLGWYQQKPGKAPKRLIYAASSLQSGVPSRFSGSGSGTEFTLTISSLQPEDFATYYCLQHNSYPFTFGPGTRVDIK | 0.258 nM | 0.26 nM | 0.207 nM | 0.306 nM |  |  |  |  |  |  |
| mAb 243 (antibody, V domains shown) VH: EVQLVESGGGLVKPGGSLRLSCAASGFTFSSYSMNWVRQAPGKGLEWVSYISTSNSYIYYADSVKGRFTISRDNAKNSLYLQMNSLRAEDTAVYYCARDQVGATLDAFDIWGQGTMVTVSS VL: DIQMTQSPSSLSASVGDRVTFTCRASQDITDDLGWYQQKPGKAPKRLIYAASSLQSGVPSRFSGSGSGTEFTLTISSLQPEDFATYYCLQHNSYPFTFGPGTKVDIR | 0.253 nM | 0.253 nM |  |  |  |  |  |  |  |  |
| mAb 176 (antibody, V domains shown) VH: EVQLVESGGGLVKPGGSLRLSCAASGFTFSSYSMNWVRQAPGKGLEWVSYISTSNSYIYYADSVKGRFTISRDNAKNSLYLQMNSLRAEDTAVYYCARDQVGATLDAFDIWGQGTMVTVSS VL: DIQMTQSPSSLSASVGDRVTFTCRASQDITDDLGWYQQKPGKAPKRLIYAASSLQSGVPPRFSGSGSGTEFTLTISSLQPEDFATYYCLQHNSYPFTFGPGTKVDIR | 0.233 nM | 0.233 nM |  |  |  |  |  |  |  |  |
| mAb 183 (antibody, V domains shown) VH: EVQLVESGGGLVKPGGSLRLSCAASGFTFSSYSMNWVRQAPGKGLEWVSYISSSYNYIYYGDSVKGRFTISRDNAKNSLYLQMNSLRAEDTAVYYCARDQVGATLDAFDIWGQGTMVTVSS VL: DIQMTQSPSSLSASVGDRVTITCRASQGIGDDLGWYQQKPGKAPKRLIYAASSLQSGVPSRFSGSGSGTEFTLTISSLQPEDFATYYCLQHNSYPFTFGPGTKVDIK | 1.44 nM | 1.04 nM | 1.84 nM |  |  |  |  |  |  |  |
| mAb 713 (antibody, V domains shown) VH: EVQLLESGGGLVQPGGSLRLSCAASGFTFSSYAMSWVRQAPGKGLEWVSAFSGSGGSTYYADSVKGRFTISRDNSKNTLYLQMNSLRAEDTAVYYCVQDGLGPYFYNYGMDVWGQGTTVTVSS VL: SYELTQPPSVSVSPGQTASITCSGDKLGDKYTCWFQQKPGQSPVLVIYHDSKRPSGIPERFSGSNSGDTATLTISGTQAMDEADYYCQAWDSSTYVFGTGTKVTVLG | 0.021 nM | 0.021 nM | 0.021 nM | 0.019 nM | 0.012 nM | 3.4e-05 s⁻¹ | 2.9e+06 M⁻¹ s⁻¹ | no binding | no binding | binding result [6]: binds; Kd (native human IL-13 [5]): 0.0036 nM |
| mAb 731 (antibody, V domains shown, also called sc731) VH: EVQLLESGGGLVQPGGSLRLSCAASGFTFSSYAMSWVRQAPGKGLEWVSAFSGSGGSTYYADSVKGRFTISRDNSKNTLYLQMNSLRAEDTAVYYCVQDGLGPYFYNYGMDVWGQGTTVTVSS VL: SYELTQPPSVSVSPGQTASITCSGDKLGDKYACWFQQKPGQSPVLVIYHDSKRPSGIPERFSGSNSGDTATLTISGTQAMDEADYYCQAWDSSTYVFGTGTKVTVLG | 0.016 nM | 0.011 nM | 0.019 nM | 0.017 nM | 0.009 nM | 3.5e-05 s⁻¹ | 3.9e+06 M⁻¹ s⁻¹ | no binding | no binding | binding result [6]: binds; Kd (native human IL-13 [5]): 0.0089 nM; Kd (native macaque IL-13): 1.6 nM; Kd (marmoset IL-13): < 0.007 nM; koff (native human IL-13 [7]): 4.2e-05 s⁻¹; kon (native human IL-13 [8]): 4.7e+06 M⁻¹ s⁻¹; binding result [9]: binds; EC50, HDLM-2 proliferation assay (3H-thymidine) [10]: 0.18 nM; EC50, L-1236 proliferation assay (3H-thymidine) [10]: 0.0052 nM; IC50, IL-13-induced CD23 expression on whole blood B cells (FACS) [10]: 0.87 nM; Kd (native human IL-13 [11]): 0.0089 nM; IC50, eotaxin production by HDFa cells, 300 pM IL-13 [12]: 28 pM; IC50, eotaxin production by HDFa cells, 600 pM IL-13 [12]: 56 pM |

Further lines, with some results ahead:

| IC50, IL-13 induced eotaxin release, Average [1] | IC50, IL-13 induced eotaxin release, n = 1 [1] | IC50, IL-13 induced eotaxin release, n = 2 [1] | IC50, IL-13 induced eotaxin release, n = 3 [1] | Kd [2] | koff [2] | kon [2] | binding result (mouse IL-13) | binding result [4] | Binder | other results |
| --- | --- | --- | --- | --- | --- | --- | --- | --- | --- | --- |
| 0.066 nM | 0.08 nM | 0.053 nM |  | 0.172 nM | 0.00051 s⁻¹ | 3e+06 M⁻¹ s⁻¹ | no binding | binds | mAb 602 (antibody, V domains shown) VH: EVQLVESGGGLVKPGGSLRLSCAASGFTFSNAWMSWVRQAPGKGLEWVGRIRSKIDGGTINYAAPVKGRFTISRDDSKNTLYLQMNSLKTEDTAVYYCATDQVGAYYGDYYGMDVWGQGTTVTVSS VL: SYELTQPPSVSVSPGQTARITCSGDALPEKYAYWYQQKSGQAPVLVIYEDTKRPSGIPERFSGSSSGTMATLTISGAQVEDEADYYCYSTDSSGNHGVFGGGTKLTVLG | binding result [3]: binds |
| 0.035 nM | 0.044 nM | 0.028 nM | 0.033 nM | 0.066 nM | 0.00029 s⁻¹ | 4.4e+06 M⁻¹ s⁻¹ | no binding | binds | mAb 643 (antibody, V domains shown) VH: EVQLVESGGGLVKPGGSLRLSCAASGFTFSNAWMSWVRQAPGKGLEWVGRIRSEIDGGTTNYAAPVKGRFTISRDDSKNTLYLQMNSLRTEDTAVYYCATDQVGAYYGDYYGMDVWGQGTTVTVSS VL: SYELTQPPSVSVSPGQTARITCSGDALPEKYAYWYQQKSGQAPVLVIYEDSKRPSGIPERFSGSSSGTMATLTISGAQVEDEADYYCHSTDSSGNHGVFGGGTKLTVLG | Kd (native human IL-13 [5]): 0.013 nM; binding result [3]: binds |
| 1 nM | 1.09 nM | 0.913 nM |  |  |  |  |  |  | mAb 356 (antibody, V domains shown) VH: EVQLVESGGGLVKPGGSLRLSCAASGFTFSDYNMHWVRQAPGKGLEWVSSISYSSTYIYYADSVRGRFTISRDNAKNSLYLQMNSLRAEDTAVFYCAREDYYYYGLDVWGQGTTVTVSS VL: DIQMTQSPSSLSASVGDRVTITCRASQDIRNDLGWYQQKPGKAPKRLIYDASSLQSGVPSRFSGSGSGTEFTLTISSLQPEDFAIYYCLQHNSYPWTFGQGTKVEIK |  |
| 0.297 nM | 0.293 nM | 0.313 nM | 0.284 nM |  |  |  |  |  | mAb 264 (antibody, V domains shown) VH: EVQLVESGGGLVKPGGSLRLSCAASGFTFSSYSMNWVRQAPGKGLEWVSYISTSNSYIYYADSVKGRFTISRDNAKNSLYLQMNSLRAEDTAVYYCARDQVGATLDAFDIWGQGTMVTVSS VL: DIQMTQSPSSLSASVGDRVTFTCRASQDITDDLGWYQQKPGKAPKRLIYAASSLQSGVPSRFSGSGSGTEFTLTISSLQPEDFATYYCLQHNSYPFTFGPGTKVDIR |  |
